{
  "source": "patent US20240011101A1",
  "about": "“METHOD OF DETERMINING RESISTANCE TO CHECKPOINT INHIBITOR THERAPIES” (Shattuck Labs, Inc., priority 2020, published 2024)",
  "molecules": {"B1": {"name": "IFNγ: mouse IFNγ (Biolegend), cytokine added to cell cultures at 20 ng/mL for 24 hours (protein, UniProt P01580 23-155, looked up)", "Interferon gamma": "HGTVIESLESLNNYFNSSGIDVEEKSLFLDIWRNWQKDGDMKILQSQIISFYLRLFEVLKDNQAISNNISVIESHLITTFFSNSKAKKDAFMSIAKFEVNNPQVQRQAFNELIRVVHQLLPESSLRKRKRSRC"}},
  "key": {"wild type CT26 cells": {"system": "wild type CT26 cells", "assay": "RNA-seq gene expression (TPM) of wild type CT26 cells cultured with or without IFNγ", "type": "cell-based", "conditions": "20 ng/mL mouse IFNγ, 24 hours, vs without IFNγ", "protocol": "(§1) Three distinct vials of parental CT26 cells (ATCC; “experimental replicates”), two independently isolated tumors from “2nd round” mice, four independently isolated tumors from “4th round” mice (both “biological replicates”) were cultured with or without 20 ng/mL of mouse IFNγ (Biolegend) for 24 hours at […]. The following day, RNA was isolated from cells using Qiagen RNeasy reagents according to manufacturer's instructions, including QIASHREDDER homogenization and on-column DNaseI digestion. Isolated RNA was subjected to RNA-seq and data analysis. Briefly, sequencing libraries were generated and sequenced on an ILLUMINA HISEQ (2×150 paired end reads), targeting >20×10^6 reads per sample. Sequences were trimmed using TRIMMOMATIC v.0.36 and mapped to the Mus musculus GRCm38 reference genome using the STAR ALIGNER v.2.5.2b. Unique gene hit counts were calculated by using FEATURECOUNTS from the SUBREAD package v.1.5.2. Only unique reads that fell within exon regions were counted. Differential gene expression was determined using DESeq2, and the Wald test was used to generate p-values and log 2 fold changes; with log 2 fold change >1 and adjusted p-values <0.05 as cutoffs for significance.\nNext, the effect of IFNγ on the expression of certain genes that are differentially expressed in the 4th generation anti-PD-1 resistant cells compared to the wild type CT26 cells was studied. Briefly, the parental CT26 cells, second generation anti-PD-1 resistant cells and 4th generation anti-PD-1 resistant cells were cultured with or without 20 ng/mL of mouse IFNγ (Biolegend) for 24 hours at 37° C./[…]. The following day, RNA was isolated from cells using Qiagen RNeasy reagents according to manufacturer's instructions, including QIASHREDDER homogenization and on-column DNaseI digestion. Isolated RNA was subjected to RNA-seq and data analysis. Briefly, sequencing libraries were generated and sequenced on an ILLUMINA HISEQ (2×150 paired end reads), targeting >20×10^6 reads per sample. Sequences were trimmed using TRIMMOMATIC v.0.36 and mapped to the Mus musculus GRCm38 reference genome using the STAR ALIGNER v.2.5.2b. Unique gene hit counts were calculated by using FEATURECOUNTS from the SUBREAD package v.1.5.2. Only unique reads that fell within exon regions were counted. Differential gene expression was determined using DESeq2, and the Wald test was used to generate p-values and log 2 fold changes; with log 2 fold change >1 and adjusted p-values <0.05 as cutoffs for significance."}, "[1]": {"system": "4th generation anti-PD-1 resistant cells", "assay": "RNA-seq gene expression (TPM) of 4th generation anti-PD-1 resistant CT26 cells cultured with or without IFNγ", "type": "cell-based, Mus musculus", "protocol": "as §1\nNext the transcriptomic profile of the 2nd and 4th generation anti-PD-1 resistant cell lines was studied by comparison with each other and with an anti-PD-1 primarily resistant cell line. The B16.F10 murine melanoma tumor cell line was used as a model of anti-PD-1 “primary resistance,” as these tumors are not responsive to anti-PD-1 therapy. Three distinct vials of parental CT26 cells (ATCC; “experimental replicates”), two independently isolated tumors from “2nd round” mice, four independently isolated tumors from “4th round” mice (both “biological replicates”), and two distinct vials of parental B16.F10 cells (ATCC; “experimental replicates were cultured with or without 20 ng/mL of mouse IFNγ (Biolegend) for 24 hours at 37° C./5% CO2 to assess in vitro responsiveness. This mimics how tumor cells respond in vivo, as immune cell infiltrate and secrete effector cytokines like IFNγ. The following day, RNA was isolated from cells using Qiagen RNeasy reagents according to manufacturers instructions, including QIASHREDDER homogenization and on-column DNaseI digestion. Isolated RNA was subjected to RNA-seq and data analysis. Briefly, sequencing libraries were generated and sequenced on an ILLUMINA HISEQ (2×150 paired end reads), targeting >20×10^6 reads per sample. Sequences were trimmed using TRIMMOMATIC v.0.36 and mapped to the Mus musculus GRCm38 reference genome using the STAR ALIGNER v.2.5.2b. Unique gene hit counts were calculated by using FEATURECOUNTS from the SUBREAD package v.1.5.2. Only unique reads that fell within exon regions were counted. Differential gene expression was determined using DESeq2, and the Wald test was used to generate p-values and log 2 fold changes; with log 2 fold change >1 and adjusted p-values <0.05 as cutoffs for significance. The DEGs were identified between untreated and IFNγ treated parental CT26. As shown in FIG. 4A (Left Panel), Log 2 fold-change was plotted in the heatmap and genes are hierarchical clustered based on parental CT26. Of these, 338 genes had usable data from the other datasets; and those values are shown in the other columns (FIG. 4A (Left Panel)). Genes separated into 3 major clusters (FIG. 4A (Left Panel)). Associated genes were input into PANTHER to identify pathways associated with the dysregulated genes and the GO pathways associated with the DEGs were identified. As shown in FIG. 4A (Right Panel), the upregulation of expression of the genes associated with following GO pathways was enriched in 2nd generation cells and 4th generation cells compared to both parental CT26 cells and B16.F10 cells: L-phenyl alanine catabolic process, phospholipid efflux, tyrosine catabolic process, positive regulation of transcription from RNA polymerase II promoter in response to acidic pH, and drug export. […]"}},
  "data": [
    {"molecule": "B1", "values": [
      {"measurement": "expression of Cd274 (PD-L1)", "setting": "wild type CT26 cells; FIG. 5A", "result": "increased"},
      {"measurement": "expression of B2M", "setting": "wild type CT26 cells; FIG. 5B", "result": "increased"},
      {"measurement": "expression of Trim7", "setting": "wild type CT26 cells; FIG. 5C", "result": "increased"},
      {"measurement": "expression of Lrg1", "setting": "wild type CT26 cells; FIG. 5D", "result": "increased"},
      {"measurement": "expression of Stat1", "setting": "wild type CT26 cells; FIG. 7A", "result": "increased"},
      {"measurement": "expression of Stat2", "setting": "wild type CT26 cells; FIG. 7B", "result": "increased"},
      {"measurement": "expression of Irf1", "setting": "wild type CT26 cells; FIG. 7C", "result": "increased"},
      {"measurement": "expression of Tap1", "setting": "wild type CT26 cells; FIG. 7D", "result": "increased"},
      {"measurement": "expression of Ccl5 (RANTES)", "setting": "wild type CT26 cells; FIG. 9A", "result": "increased"},
      {"measurement": "expression of Cxcl10 (IP-10)", "setting": "wild type CT26 cells; FIG. 9B", "result": "increased"},
      {"measurement": "expression of Ifnb1", "setting": "wild type CT26 cells; FIG. 9C", "result": "increased"},
      {"measurement": "expression of type I and type II interferon genes (baseline hyperactivated)", "setting": "[1]; CT26 anti-PD-1 resistant cells challenged with IFNγ (20 ng/mL, 24 hours), FIG. 4B", "result": "downregulate"},
      {"measurement": "expression of Trim7", "setting": "[1]; in response to IFNγ (20 ng/mL, 24 hours), FIG. 5C", "result": "overexpressed"},
      {"measurement": "expression of Lrg1", "setting": "[1]; in response to IFNγ (20 ng/mL, 24 hours), FIG. 5D", "result": "overexpressed"},
      {"measurement": "expression of CD274", "setting": "[1]; in the presence of IFNγ (20 ng/mL, 24 hours), FIG. 5A", "result": "repressed"},
      {"measurement": "expression of B2m", "setting": "[1]; in the presence of IFNγ (20 ng/mL, 24 hours), FIG. 5B", "result": "repressed"},
      {"measurement": "expression of Stat1", "setting": "[1]; in the presence of IFNγ (20 ng/mL, 24 hours), FIG. 7A", "result": "repressed"},
      {"measurement": "expression of Stat2", "setting": "[1]; in the presence of IFNγ (20 ng/mL, 24 hours), FIG. 7B", "result": "repressed"},
      {"measurement": "expression of Irf1", "setting": "[1]; in the presence of IFNγ (20 ng/mL, 24 hours), FIG. 7C", "result": "repressed"},
      {"measurement": "expression of Tap1", "setting": "[1]; in the presence of IFNγ (20 ng/mL, 24 hours), FIG. 7D", "result": "repressed"},
      {"measurement": "expression of Ccl5 (RANTES)", "setting": "[1]; in the presence of IFNγ (20 ng/mL, 24 hours), FIG. 9A", "result": "repressed"},
      {"measurement": "expression of Cxcl10 (IP-10)", "setting": "[1]; in the presence of IFNγ (20 ng/mL, 24 hours), FIG. 9B", "result": "repressed"},
      {"measurement": "expression of Ifnb1", "setting": "[1]; in the presence of IFNγ (20 ng/mL, 24 hours), FIG. 9C", "result": "repressed"}
    ]}
  ]
}
